Experiment [1] has as its target T1, Human CEACAM5 (K398) (human, UniProt P06731 35-685, limits assumed).
T1 construct: also called K398 allele
T1 sequence: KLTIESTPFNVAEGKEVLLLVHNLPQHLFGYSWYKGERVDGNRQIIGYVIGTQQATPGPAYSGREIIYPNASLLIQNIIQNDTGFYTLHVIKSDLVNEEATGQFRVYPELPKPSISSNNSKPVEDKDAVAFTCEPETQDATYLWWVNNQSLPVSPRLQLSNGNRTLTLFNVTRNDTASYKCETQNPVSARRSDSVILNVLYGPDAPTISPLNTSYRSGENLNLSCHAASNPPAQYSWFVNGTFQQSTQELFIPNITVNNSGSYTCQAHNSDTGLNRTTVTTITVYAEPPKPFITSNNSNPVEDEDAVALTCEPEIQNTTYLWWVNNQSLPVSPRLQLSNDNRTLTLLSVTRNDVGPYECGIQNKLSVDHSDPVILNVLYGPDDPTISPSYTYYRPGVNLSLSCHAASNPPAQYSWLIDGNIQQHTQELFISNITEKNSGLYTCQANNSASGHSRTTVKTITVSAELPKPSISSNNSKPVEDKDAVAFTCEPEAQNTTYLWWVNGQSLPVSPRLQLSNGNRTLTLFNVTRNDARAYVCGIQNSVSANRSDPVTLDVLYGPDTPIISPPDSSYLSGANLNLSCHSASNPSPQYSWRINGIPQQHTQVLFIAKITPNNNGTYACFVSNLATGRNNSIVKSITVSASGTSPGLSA
As to the kind of experiment: SPR, 37C, pH 7.4; reference E398.

For experiment [2], the target named is T2, Human CEACAM5 V83A (human, UniProt P06731 35-685, limits assumed).
T2 sequence: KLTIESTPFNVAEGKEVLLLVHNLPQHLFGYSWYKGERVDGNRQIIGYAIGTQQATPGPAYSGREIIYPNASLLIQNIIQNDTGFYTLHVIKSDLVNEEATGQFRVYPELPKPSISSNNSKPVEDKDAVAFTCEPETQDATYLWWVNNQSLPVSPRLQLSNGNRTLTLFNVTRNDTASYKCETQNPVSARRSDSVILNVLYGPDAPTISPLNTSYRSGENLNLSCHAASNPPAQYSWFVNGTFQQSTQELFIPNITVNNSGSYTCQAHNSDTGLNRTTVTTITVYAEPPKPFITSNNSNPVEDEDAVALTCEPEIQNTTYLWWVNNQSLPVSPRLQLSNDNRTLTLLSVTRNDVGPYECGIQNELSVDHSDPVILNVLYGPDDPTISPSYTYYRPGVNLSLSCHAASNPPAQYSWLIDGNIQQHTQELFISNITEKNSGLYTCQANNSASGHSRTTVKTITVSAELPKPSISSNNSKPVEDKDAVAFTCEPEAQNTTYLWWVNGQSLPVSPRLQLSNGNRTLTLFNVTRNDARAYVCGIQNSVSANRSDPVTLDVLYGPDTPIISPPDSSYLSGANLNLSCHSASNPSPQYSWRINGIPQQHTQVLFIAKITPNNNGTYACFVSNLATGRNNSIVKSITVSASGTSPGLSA
As to the kind of experiment: SPR, 37C, pH 7.4; reference E398.

The target of experiment [3] is T3, human CEACAM6 on Ba/F3 cells (human, UniProt P40199 35-320).
T3 construct: whole, on cells
T3 sequence (looked up): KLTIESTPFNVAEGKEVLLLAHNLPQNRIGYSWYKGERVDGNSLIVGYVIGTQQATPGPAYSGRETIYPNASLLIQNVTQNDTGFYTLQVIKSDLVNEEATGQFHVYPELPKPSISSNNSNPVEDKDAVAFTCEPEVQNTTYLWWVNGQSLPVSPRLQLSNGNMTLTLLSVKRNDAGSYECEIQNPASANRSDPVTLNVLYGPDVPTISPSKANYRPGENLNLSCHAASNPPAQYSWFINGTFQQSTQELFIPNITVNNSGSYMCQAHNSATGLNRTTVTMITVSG
As to the kind of experiment: flow cytometry on Ba/F3 cells expressing human CEACAM6, fold over background (FOB), 5-fold dilutions from 1600 nM. On the procedure:
(§1) To examine the binding specificity of the TriNKETs to CEACAM5 compared to other CEACAM family members, Ba/F3 cells were engineered to express one of human CEACAM1, CEACAM6, CEACAM8, or cynomolgus CEACAM5. CEACAM5 TriNKETs were evaluated by flow cytometry starting at 1600 nM followed by 7 5-fold dilutions.

Experiment [4] deals with T4, Human CEACAM1 (human, UniProt P13688 35-428, limits assumed).
T4 sequence (looked up): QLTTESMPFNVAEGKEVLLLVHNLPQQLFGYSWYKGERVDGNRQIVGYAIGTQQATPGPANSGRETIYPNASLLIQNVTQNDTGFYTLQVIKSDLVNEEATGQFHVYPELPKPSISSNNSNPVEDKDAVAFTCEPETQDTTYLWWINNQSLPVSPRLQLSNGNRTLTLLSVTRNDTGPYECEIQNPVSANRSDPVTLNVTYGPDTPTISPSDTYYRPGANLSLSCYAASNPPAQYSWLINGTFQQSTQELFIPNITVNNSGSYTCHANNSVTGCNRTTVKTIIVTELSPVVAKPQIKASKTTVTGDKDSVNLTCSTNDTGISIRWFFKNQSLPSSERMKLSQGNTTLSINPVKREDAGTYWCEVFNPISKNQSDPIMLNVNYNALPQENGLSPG
As to the kind of experiment: SPR, 37C, pH 7.4. On the procedure: To determine the affinity and cross-reactivity of CEACAM5 TriNKET molecules, AB0411, AB0466, or AB0621 TriNKETs were captured using an anti-human Fc capture antibody (Cytiva, #BR100839) immobilized onto a Biacore CM5 standard surface sensor chip following manufacturer instructions. Human or cynomolgus CEACAM5 were titrated over captured AB0411, AB0466, and AB0621 as 2-fold serial dilutions starting from 300 nM. Association was monitored for 300 sec and dissociation was monitored for 600 sec. The assay was run at 37° C. at pH 7.4 and 6.0. The surface of the CM5 chip was regenerated with 10 mM glycine pH 1.5 for 20 sec at 100 μL/min.
Binding to human and cynomolgus CEACAM1, 6, and 8 was assessed by SPR using the same protocol as for CEACAM5 but using up to 600 and 1200 nM for titration of each protein. There were no detectable binding signals at these concentrations for AB0621. In contrast, reproducible weak binding signals were detected for AB0411 and AB0466, but these two TriNKETs also bound to different epitope(s) on the N-terminus of CEACAM5. Typical weak binding sensorgrams for AB0411 and AB0466 against human CEACAM1 and 6 indicated weak but notable signals compared to AB0621. […]

The target of experiment [5] is T5, cynomolgus CEACAM5 on Ba/F3 cells (cynomolgus monkey).
T5 construct: whole, on cells
As to the kind of experiment: flow cytometry on Ba/F3 cells expressing cynomolgus CEACAM5, fold over background (FOB), 5-fold dilutions from 1600 nM. The procedure:
as §1

B1: AB0466 F3' CEACAM5 TriNKET (bispecific antibody, human IgG1, kappa)
chain: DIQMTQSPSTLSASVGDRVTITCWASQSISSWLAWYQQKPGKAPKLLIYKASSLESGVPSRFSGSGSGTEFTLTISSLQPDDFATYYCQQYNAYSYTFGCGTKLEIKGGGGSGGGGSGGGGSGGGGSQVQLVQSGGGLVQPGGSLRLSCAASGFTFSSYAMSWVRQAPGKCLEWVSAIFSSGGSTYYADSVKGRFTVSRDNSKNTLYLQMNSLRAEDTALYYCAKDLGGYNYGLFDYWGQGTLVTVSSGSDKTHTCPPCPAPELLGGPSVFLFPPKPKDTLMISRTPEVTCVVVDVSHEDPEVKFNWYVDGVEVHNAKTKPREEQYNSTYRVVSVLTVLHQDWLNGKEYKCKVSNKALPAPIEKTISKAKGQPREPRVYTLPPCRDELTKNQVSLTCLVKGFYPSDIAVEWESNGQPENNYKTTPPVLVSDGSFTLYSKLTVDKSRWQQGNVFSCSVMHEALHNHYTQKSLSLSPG
heavy: EVQLVESGGGLVKPGGSLRLSCAASGFTFSSYSMNWVRQAPGKGLEWVSSISSSSSYIYYADSVKGRFTISRDNAKNSLYLQMNSLRAEDTAVYYCARGAPIGAAAGWFDPWGQGTLVTVSSASTKGPSVFPLAPSSKSTSGGTAALGCLVKDYFPEPVTVSWNSGALTSGVHTFPAVLQSSGLYSLSSVVTVPSSSLGTQTYICNVNHKPSNTKVDKKVEPKSCDKTHTCPPCPAPELLGGPSVFLFPPKPKDTLMISRTPEVTCVVVDVSHEDPEVKFNWYVDGVEVHNAKTKPREEQYNSTYRVVSVLTVLHQDWLNGKEYKCKVSNKALPAPIEKTISKAKGQPREPQVCTLPPSRDELTENQVSLTCLVKGFYPSDIAVEWESNGQPENNYKTTPPVLDSDGSFFLYSWLTVDKSRWQQGNVFSCSVMHEALHNHYTQKSLSLSPG
light: DIQMTQSPSSVSASVGDRVTITCRASQGISSWLAWYQQKPGKAPKLLIYAASSLQSGVPSRFSGSGSGTDFTLTISSLQPEDFATYYCQQGVSFPRTFGGGTKVEIKRTVAAPSVFIFPPSDEQLKSGTASVVCLLNNFYPREAKVQWKVDNALQSGNSQESVTEQDSKDSTYSLSSTLTLSKADYEKHKVYACEVTHQGLSSPVTKSFNRGEC
For B1, the “KD/KD(Ref)” value turned out to be 0.9 fold in experiment [1] and 9.3 fold in experiment [2]. Besides, in experiment [3], the binding result was “no binding (tested: 1600 nM)”.

B2: AB0411 F3' CEACAM5 TriNKET (bispecific antibody, human IgG1, kappa)
chain: DIQLTQSPATLSVSPGERATLSCRASQSVSSSYLAWYQQKPGQAPRLLIYGASSRATGIPDRFSGSGSGTDFTLTISRLEPEDFAVYYCQQYNNWPLTFGCGTKVEIKGGGGSGGGGSGGGGSGGGGSQVQLVQSGGGLVQPGGSLRLSCAASGFTFTSYAMSWVRQAPGKCLEWVSAISGTGDSTFYADSVKGRFTFSRDNSKNTLYLQMNSLRAEDTAVYYCAKDLGWLQYGLFDYWGQGTLVTVSSGSDKTHTCPPCPAPELLGGPSVFLFPPKPKDTLMISRTPEVTCVVVDVSHEDPEVKFNWYVDGVEVHNAKTKPREEQYNSTYRVVSVLTVLHQDWLNGKEYKCKVSNKALPAPIEKTISKAKGQPREPRVYTLPPCRDELTKNQVSLTCLVKGFYPSDIAVEWESNGQPENNYKTTPPVLVSDGSFTLYSKLTVDKSRWQQGNVFSCSVMHEALHNHYTQKSLSLSPG
heavy: EVQLVESGGGLVKPGGSLRLSCAASGFTFSSYSMNWVRQAPGKGLEWVSSISSSSSYIYYADSVKGRFTISRDNAKNSLYLQMNSLRAEDTAVYYCARGAPIGAAAGWFDPWGQGTLVTVSSASTKGPSVFPLAPSSKSTSGGTAALGCLVKDYFPEPVTVSWNSGALTSGVHTFPAVLQSSGLYSLSSVVTVPSSSLGTQTYICNVNHKPSNTKVDKKVEPKSCDKTHTCPPCPAPELLGGPSVFLFPPKPKDTLMISRTPEVTCVVVDVSHEDPEVKFNWYVDGVEVHNAKTKPREEQYNSTYRVVSVLTVLHQDWLNGKEYKCKVSNKALPAPIEKTISKAKGQPREPQVCTLPPSRDELTENQVSLTCLVKGFYPSDIAVEWESNGQPENNYKTTPPVLDSDGSFFLYSWLTVDKSRWQQGNVFSCSVMHEALHNHYTQKSLSLSPG
light: DIQMTQSPSSVSASVGDRVTITCRASQGISSWLAWYQQKPGKAPKLLIYAASSLQSGVPSRFSGSGSGTDFTLTISSLQPEDFATYYCQQGVSFPRTFGGGTKVEIKRTVAAPSVFIFPPSDEQLKSGTASVVCLLNNFYPREAKVQWKVDNALQSGNSQESVTEQDSKDSTYSLSSTLTLSKADYEKHKVYACEVTHQGLSSPVTKSFNRGEC
For B2, the “KD/KD(Ref)” value in experiment [1] was 0.9 fold; in experiment [2], 4.9 fold.

B3: AB0264 F3' CEACAM5 TriNKET (bispecific antibody, human IgG1, kappa)
chain: DIVMTQSPDSLAVSLGERATINCKSSHSLLYGNFQNNYLAWYQQKPGQPPKLLIYWASTRESGVPDRFSGSGSGTDFTLTISSLQAEDVAVYYCQQYYSYPYTFGCGTKLEIKGGGGSGGGGSGGGGSGGGGSQVQLVQSGAEVKKPGASVKVSCKASGYTFTAYTIHWVRQAPGQCLEWMGYINPSSGYTEYNQKFKDRTTLTADTSIPTAYMELSRLRSDDTAVYYCTREGGLLWFDYWGQGTLVTVSSGSDKTHTCPPCPAPELLGGPSVFLFPPKPKDTLMISRTPEVTCVVVDVSHEDPEVKFNWYVDGVEVHNAKTKPREEQYNSTYRVVSVLTVLHQDWLNGKEYKCKVSNKALPAPIEKTISKAKGQPREPRVYTLPPCRDELTKNQVSLTCLVKGFYPSDIAVEWESNGQPENNYKTTPPVLVSDGSFTLYSKLTVDKSRWQQGNVFSCSVMHEALHNHYTQKSLSLSPG
heavy: EVQLVESGGGLVKPGGSLRLSCAASGFTFSSYSMNWVRQAPGKGLEWVSSISSSSSYIYYADSVKGRFTISRDNAKNSLYLQMNSLRAEDTAVYYCARGAPIGAAAGWFDPWGQGTLVTVSSASTKGPSVFPLAPSSKSTSGGTAALGCLVKDYFPEPVTVSWNSGALTSGVHTFPAVLQSSGLYSLSSVVTVPSSSLGTQTYICNVNHKPSNTKVDKKVEPKSCDKTHTCPPCPAPELLGGPSVFLFPPKPKDTLMISRTPEVTCVVVDVSHEDPEVKFNWYVDGVEVHNAKTKPREEQYNSTYRVVSVLTVLHQDWLNGKEYKCKVSNKALPAPIEKTISKAKGQPREPQVCTLPPSRDELTENQVSLTCLVKGFYPSDIAVEWESNGQPENNYKTTPPVLDSDGSFFLYSWLTVDKSRWQQGNVFSCSVMHEALHNHYTQKSLSLSPG
light: DIQMTQSPSSVSASVGDRVTITCRASQGISSWLAWYQQKPGKAPKLLIYAASSLQSGVPSRFSGSGSGTDFTLTISSLQPEDFATYYCQQGVSFPRTFGGGTKVEIKRTVAAPSVFIFPPSDEQLKSGTASVVCLLNNFYPREAKVQWKVDNALQSGNSQESVTEQDSKDSTYSLSSTLTLSKADYEKHKVYACEVTHQGLSSPVTKSFNRGEC
On to B3, for which the binding result in experiment [3] is “no binding (tested: 1600 nM)”; in experiment [4] it was “no binding (tested: up to 600 and 1200 nM)”. The “EC50 (read off the curve)” value in experiment [5] was around 0.04 µM.

These data come from patent US20240124607A1 (Merck Sharp & Dohme, published 2024).
